{
  "source": "patent EP4431525A1",
  "about": "(Anaveon AG, dated 2024)",
  "binders": {"B1": {"name": "z2-XVT458-m1 (antibody, V domains shown)", "VH": "QVQLVQSGAEVKKPGASVKVSCKASGYTFTNFYIHWVRQAPGQGLEWMGSIYPNYGFTAYNQKFKDRVTMTVDTSTSTAYMELRSLRSDDTAVYYCARGYSYAMDYWGQGTTVTVSS", "VL": "DIQMTQSPSSVSASVGDRVTITCSASQGIWGDLNWYQQKPGKAPKLLIYHTSQLHSDVPSRFSGSGSGTDFTLTISSLQPEDFATYYCQGYSKDLLTFGGGTKLEIK", "notes": "IgG format; also called XVT458-z2-m1; XVT458-z2-ml"}, "B2": {"name": "z2-XVT458-m3 (antibody, V domains shown)", "VH": "B1 VH with S50R, F57I", "VL": "B1 VL with W30S, L54R", "notes": "IgG format; also called XVT458-z2-m3; XVT458-Z2-M3"}, "B3": {"name": "z2-XVT458-m6 (antibody, V domains shown)", "VH": "B1 VH with F57I", "VL": "B1 VL with W30S", "notes": "IgG format; also called XVT458-z2-m6; XVT458-Z2-m6"}},
  "note": "Where a chain is given by its changes, count along the chain named.",
  "data": [
    {"target": "T1, hPD-1 Avi-Tag Biotin (AcroBiosystems, PD1-H82E4) (human, UniProt Q15116 25-167, biotin on Avi-Tag)", "T1 construct": "bought; also called recombinant hPD-1", "T1 sequence (Q15116 25-167 limits assumed)": "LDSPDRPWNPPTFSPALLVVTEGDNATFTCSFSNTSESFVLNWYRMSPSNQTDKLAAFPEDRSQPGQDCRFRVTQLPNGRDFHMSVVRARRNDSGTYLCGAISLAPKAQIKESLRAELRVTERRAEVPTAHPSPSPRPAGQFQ", "test": "IgG format; ELISA / SPR", "values": [
      {"binder": "B1", "binding result": "binds"},
      {"binder": "B2", "binding result": "binds"},
      {"binder": "B3", "binding result": "binds"}
    ]},
    {"target": "T2, human PD-1 expressed on cells (human, UniProt Q15116 25-288)", "T2 construct": "whole, on cells; also called hPD-1; PDCD1", "T2 sequence (Q15116 25-288)": "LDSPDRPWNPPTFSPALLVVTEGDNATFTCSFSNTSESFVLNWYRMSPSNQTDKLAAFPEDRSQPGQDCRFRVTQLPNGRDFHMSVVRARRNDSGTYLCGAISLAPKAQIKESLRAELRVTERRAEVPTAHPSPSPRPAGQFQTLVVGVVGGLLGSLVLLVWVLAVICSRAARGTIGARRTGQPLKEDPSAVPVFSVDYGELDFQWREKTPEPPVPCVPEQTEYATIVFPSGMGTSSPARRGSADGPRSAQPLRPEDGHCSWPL", "test": "Retrogenix cell microarray, HEK293 cells", "values": [
      {"binder": "B1", "binding result": "binds"},
      {"binder": "B2", "binding result": "binds"},
      {"binder": "B3", "binding result": "binds"}
    ]}
  ]
}
